The record followed here is the supplement of paper PMC5998384.

In series [1] the test system is HeLa Kyoto. The series is described as follows: melting temperature (median over replicates), in situ; higher = more thermally stable.
Series [2] deals with HeLa Kyoto. The series is described as follows: solubility in G1/S (NP-40 vs SDS abundance) (log2 ratio); higher = more soluble. The following applies: cell cycle stage: G1/S.
Series [3] relates to HeLa Kyoto. The series is described as follows: solubility change mitosis vs G1/S (difference of NP-40 vs SDS log2 ratios) (log2 ratio difference); higher = more soluble in mitosis.
The test system of series [4] is HeLa Kyoto. The series is described as follows: thermal stability score vs G1/S (z-score of summed log2 fold changes over temperatures); higher = more thermally stable than in G1/S.
Where [5] appears, read: cell cycle stage: early G1 (4.5 h after nocodazole release).
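Wherever melting temperature (median over replicates), in situ is given: HeLa Kyoto cells synchronized by double thymidine or nocodazole block, proteins quantified by TMT10plex mass spectrometry, three independent biological replicates.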
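Wherever solubility change mitosis vs G1/S (difference of NP-40 vs SDS log2 ratios) is given: synchronized HeLa Kyoto cells (double thymidine block for G1/S, nocodazole release for mitosis), protein amounts in NP-40 versus SDS lysates quantified by mass spectrometry, three biological replicates.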
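Wherever solubility in G1/S (NP-40 vs SDS abundance) is given: HeLa Kyoto cells arrested at G1/S by double thymidine block, proteins quantified by TMT10plex mass spectrometry in mild NP-40 versus SDS extracts, three biological replicates.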
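Wherever thermal stability score vs G1/S (z-score of summed log2 fold changes over temperatures) is given: synchronized HeLa Kyoto cells, proteins quantified by TMT10plex mass spectrometry, three biological replicates, mitosis taken 0.5 h after nocodazole release, G1/S directly after double thymidine block.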

TIMM17A, sequence (chain, as listed by the source): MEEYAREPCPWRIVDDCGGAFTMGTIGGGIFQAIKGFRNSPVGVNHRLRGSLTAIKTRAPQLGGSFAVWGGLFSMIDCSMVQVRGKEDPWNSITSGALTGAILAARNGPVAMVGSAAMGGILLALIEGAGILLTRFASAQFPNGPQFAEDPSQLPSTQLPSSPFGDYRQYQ
APTX, sequence (chain, as listed by the source): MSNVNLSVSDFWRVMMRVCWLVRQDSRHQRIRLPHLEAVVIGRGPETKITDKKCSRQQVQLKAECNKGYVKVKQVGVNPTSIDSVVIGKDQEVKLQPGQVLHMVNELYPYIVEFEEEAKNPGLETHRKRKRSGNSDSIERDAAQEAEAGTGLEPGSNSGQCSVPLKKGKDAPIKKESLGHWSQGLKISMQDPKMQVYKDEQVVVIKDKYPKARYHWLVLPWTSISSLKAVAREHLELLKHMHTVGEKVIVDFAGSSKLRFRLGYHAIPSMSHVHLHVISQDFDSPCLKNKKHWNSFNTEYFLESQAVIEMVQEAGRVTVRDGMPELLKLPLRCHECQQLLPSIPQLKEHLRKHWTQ

Regarding ITPR2, the melting temperature amounted to 49.6 °C with HeLa Kyoto [1] (cell cycle stage: G1/S) and 50.4 °C in the series with HeLa Kyoto [1] (cell cycle stage: mitosis). Moreover, the “solubility in G1/S (log2)” value in the series with HeLa Kyoto [2] is -0.52. In addition, the “solubility change mitosis (log2)” value with HeLa Kyoto [3] was determined as 0.131. Besides, the thermal stability score with HeLa Kyoto [4] (setting [5]) is -0.335; in the series on HeLa Kyoto [4] (cell cycle stage: mitosis), 0.355.
Turning to “MKVTLSALDTSESSFTPLVVIELAQDVKEETKEWLKNRIIAKKKDGGAQLLFRPLLNKYEQETLENQNLYLVGASKIRMLLGAEAVGLVKECNDNTMRAFTYRTRQNFKGFDDNNDDFLTMAECQFIIKHELENLRAKDEKMIPGYPQAKLYPGKSLLRRLLTSGIVIQVFPLHDSEALKKLEDTWYTRFALKYQPIDSIRGYFGETIALYFGFLEYFTFALIPMAVIGLPYYLFVWEDYDKYVIFASFNLIWSTVILELWKRGCANMTYRWGTLLMKRKFEEPRPGFHGVLGINSITGKEEPLYPSYKRQLRIYLVSLPFVCLCLYFSLYVMMIYFDMEVWALGLHENSGSEWTSVLLYVPSIIYAIVIEIMNRLYRYAAEFLTSWENHRLESAYQNHLILKVLVFNFLNCFASLFYIAFVLKDMKLLRQSLATLLITSQILNQIMESFLPYWLQRKHGVRVKRKVQALKADIDATLYEQVILEKEMGTYLGTFDDYLELFLQFGYVSLFSCVYPLAAAFAVLNNFTEVNSDALKMCRVFKRPFSEPSANIGVWQLAFETMSVISVVTNCALIGMSPQVNAVFPESKADLILIVVAVEHALLALKFILAFAIPDKPRHIQMKLARLEFESLEALKQQQMKLVTENLKEEPMESGKEKAT [ANO10]”, the melting temperature with HeLa Kyoto [1] (cell cycle stage: G1/S) worked out at 53.2 °C; with HeLa Kyoto [1] (cell cycle stage: mitosis), 51.9 °C. The “solubility in G1/S (log2)” value in the series with HeLa Kyoto [2] is -0.181. Further, the “solubility change mitosis (log2)” value in the series with HeLa Kyoto [3] is -0.214. Further, the thermal stability score in the series with HeLa Kyoto [4] (setting [5]) is -0.93; in the series on HeLa Kyoto [4] (cell cycle stage: mitosis), -1.12.
Regarding “MAIKSIASRLRGSRRFLSGFVAGAVVGAAGAGLAALQFFRSQGAEGALTGKQPDGSAEKAVLEQFGFPLTGTEARCYTNHALSYDQAKRVPRWVLEHISKSKIMGDADRKHCKFKPDPNIPPTFSAFNEDYVGSGWSRGHMAPAGNNKFSSKAMAETFYLSNIVPQDFDNNSGYWNRIEMYCRELTERFEDVWVVSGPLTLPQTRGDGKKIVSYQVIGEDNVAVPSHLYKVILARRSSVSTEPLALGAFVVPNEAIGFQPQLTEFQVSLQDLEKLSGLVFFPHLDRTSDIRNICSVDTCKLLDFQEFTLYLSTRKIEGARSVLRLEKIMENLKNAEIEPDDYFMSRYEKKLEELKAKEQSGTQIRKPS [EXOG]”, the results for the melting temperature with HeLa Kyoto [1] (cell cycle stage: G1/S) and with HeLa Kyoto [1] (cell cycle stage: mitosis) were 52.8 °C and 51.3 °C, respectively. For the same substance, the “solubility in G1/S (log2)” value in the series with HeLa Kyoto [2] was found to be 0.21. Besides, the “solubility change mitosis (log2)” value in the series with HeLa Kyoto [3] is -0.0598. Besides, the thermal stability score in the series on HeLa Kyoto [4] (setting [5]) was 2.74; in the series on HeLa Kyoto [4] (cell cycle stage: mitosis), -1.52.
Regarding “MAKAYDHLFKLLLIGDSGVGKTCLIIRFAEDNFNNTYISTIGIDFKIRTVDIEGKKIKLQVWDTAGQERFKTITTAYYRGAMGIILVYDITDEKSFENIQNWMKSIKENASAGVERLLLGNKCDMEAKRKVQKEQADKLAREHGIRFFETSAKSSMNVDEAFSSLARDILLKSGGRRSGNGNKPPSTDLKTCDKKNTNKCSLG [RAB13]”, the melting temperature with HeLa Kyoto [1] (cell cycle stage: G1/S) amounted to 53.5 °C; with HeLa Kyoto [1] (cell cycle stage: mitosis) it was 53 °C. The “solubility in G1/S (log2)” value in the series on HeLa Kyoto [2] is -0.134. Besides, the “solubility change mitosis (log2)” value in the series on HeLa Kyoto [3] is -0.198. For the same substance, the figures for the thermal stability score in the series with HeLa Kyoto [4] (setting [5]) and in the series on HeLa Kyoto [4] (cell cycle stage: mitosis) were -0.483 and -1.07, respectively.
In the case of “MAEVSIDQSKLPGVKEVCRDFAVLEDHTLAHSLQEQEIEHHLASNVQRNRLVQHDLQVAKQLQEEDLKAQAQLQKRYKDLEQQDCEIAQEIQEKLAIEAERRRIQEKKDEDIARLLQEKELQEEKKRKKHFPEFPATRAYADSYYYEDGGMKPRVMKEAVSTPSRMAHRDQEWYDAEIARKLQEEELLATQVDMRAAQVAQDEEIARLLMAEEKKAYKKAKEREKSSLDKRKQDPEWKPKTAKAANSKSKESDEPHHSKNERPARPPPPIMTDGEDADYTHFTNQQSSTRHFSKSESSHKGFHYKH [CCDC50]”, the melting temperature came out at 57.7 °C in the series on HeLa Kyoto [1] (cell cycle stage: G1/S) and 55 °C with HeLa Kyoto [1] (cell cycle stage: mitosis). Also, the “solubility in G1/S (log2)” value with HeLa Kyoto [2] was 0.334. Moreover, in the series on HeLa Kyoto [3], the “solubility change mitosis (log2)” value amounted to 0.182. In addition, the thermal stability score is -5.07 with HeLa Kyoto [4] (setting [5]) and -1.65 in the series with HeLa Kyoto [4] (cell cycle stage: mitosis).
Regarding TIMM17A, the figures for the melting temperature in the series on HeLa Kyoto [1] (cell cycle stage: G1/S) and in the series with HeLa Kyoto [1] (cell cycle stage: mitosis) were 58.5 °C and 58.7 °C, respectively. Also, the “solubility in G1/S (log2)” value with HeLa Kyoto [2] was found to be 0.157. Moreover, the “solubility change mitosis (log2)” value in the series with HeLa Kyoto [3] is -0.00894. For the same substance, the values for the thermal stability score with HeLa Kyoto [4] (setting [5]) and in the series on HeLa Kyoto [4] (cell cycle stage: mitosis) were -1.93 and -3.23, respectively.
Consider APTX, for which the melting temperature stood at 48.5 °C in the series on HeLa Kyoto [1] (cell cycle stage: G1/S) and 50.7 °C in the series on HeLa Kyoto [1] (cell cycle stage: mitosis). Further, in the series on HeLa Kyoto [2], the “solubility in G1/S (log2)” value is -0.219. Moreover, the “solubility change mitosis (log2)” value with HeLa Kyoto [3] stood at 0.0501. The thermal stability score in the series with HeLa Kyoto [4] (setting [5]) turned out to be 0.58; with HeLa Kyoto [4] (cell cycle stage: mitosis), 1.59.
